The nature of series [1]: Stability testing of peptide variants (scored). The series is classed as physicochemical. The source says:
Stability, Miles Assay activity and corneal angiogenesis activities of a number of the peptides were investigated, and scored.

The test system of another series is new vessel growth. Conditions: rats, given systemically; cited from earlier work.
For series [2], the system named is primary rat retinal pigment epithelial cells (RPEs). Conditions: cited from earlier work.
Series [3] in a line: Topical distribution of radiolabeled TAT peptide after instillation to rabbit eyes. The series is classed as in vivo. Conditions: rabbit eye. How it is done:
Radiolabeled TAT peptide [^14C]-YGXaaRKKRRQRRR (SEQ ID NO:19) (10 μCi) was applied in 5 instillations to each eye (50 μCi total—4 rabbits, 2 eyes each, n=8 eyes, 3 mg total applied to each eye). Each application was 1 hour apart, animals sacrificed 15 minutes after last application. Tissue samples were taken and assayed to determine topical distribution.

Series [4] has as its system VEGF-induced vascular permeability. Description: Miles assay (Evans Blue dye extravasation after intradermal VEGF with PKC modulator). In kind it is in vivo. Conditions: increasing VEGF doses. How it is done:
In this study animals were injected intravenously with Evans Blue Dye. Animals were administered VEGF in increasing doses with a PKC modulator intradermally. […] The spots were removed, the dye extracted and quantities were measured spectrophotometrically.
A parent compound, βIV5-3 (SEQ ID NO:6) and a peptide variant—a linear version of the peptide, linear βI, having the sequence […] (SEQ ID NO:18)—were tested in the Miles assay.
The Miles assay was similarly performed with a βIPKC (βIV5-3 (SEQ ID NO:6)) inhibitor, a βIIPKC (βIIV5-3 (SEQ ID NO:8)) inhibitor, a classical ((β-, α-, γPKC) PKC inhibitor (βC2-4 (SEQ ID NO:10), and the scrambled control 1 peptide from Example 2 (SEQ ID NO:12) conjugated to TAT (SEQ ID NO:5).

As for GKLFIMNADGYGRKKRRQRRR [Linear bI (4)], the Stability testing entry in series [1] is “++”.

As to GQEVIRNGGYGRKKRRQRRR [linear bII], the Stability testing result in series [1] is on record as “−”.

GKLFIMNLGYGRKKRRQRRR [Linear bI (5)]: the Stability testing result in series [1] is given as “+++”.

GKLFIMNAGGYGRKKRRQRRR [Linear bI (6)]: in series [1], the Stability testing entry is listed as “++”.

Turning to `Cn1cc(C2=C(c3cn(C4CCN(Cc5ccccn5)CC4)c4ccccc34)C(=O)NC2=O)c2ccccc21` [LY317615], the new vessel growth entry in the series on new vessel growth was “prevent new vessel growth”.

As for `CCCCCCCCCCCCCC(=O)O[C@@H]1[C@@H](C)[C@@]2(O)[C@@H](C=C(CO)C[C@]3(O)C(=O)C(C)=C[C@@H]23)[C@@H]2C(C)(C)[C@]12OC(C)=O` [PMA], the “PKC-delta level in RPEs” value in series [2] (exposure for 24 hours) was “significantly down regulated”. Further, in series [2] (normal or high glucose, or hypoxia, treatment for 24 hours), the “Secretion of VEGF” value was “significantly reduced”.

For “[^14C]-YGXaaRKKRRQRRR [Radiolabeled TAT peptide]”, the “Topical distribution, Sclera” value in series [3] (5 instillations 1 hour apart, 3 mg total per eye, 15 minutes after last application) is reported as 28.4 μ/g tissue. In series [3] (topical), the “Choroid, applied total dose” value came to 0.003%; the “Retina, applied total dose” value is 0.001%; the “Sclera, applied total dose” value was 0.134%; the “Vitreous, applied total dose” value was 0.006%.

Regarding GSLNPEWNETGGYGRKKRRQRRR [linear bC2-4], the Stability testing result in series [1] is recorded as “+++”.

As to “GEEVIRNISGYGRKKRRQRRR [bII linear analog]”, the Stability testing result in series [1] is recorded as “+++”.

As to “GKLFIMNGGYGRKKRRQRRR (GKLFIMNLSGYGRKKRRQRRR) [linear bI, a linear version of the peptide βIV5-3]”, the “VEGF-induced vascular permeability in comparison to vehicle alone” value in series [4] is given as “reduced vascular permeability”.

Take “GKLFIMNLSGYGRKKRRQRRR (GKLFIMNAGGYGRKKRRQRRR) [bI linear analog]”: the Stability testing result in series [1] is listed as “++”.

On to GKLFIMNLDGYGRKKRRQRRR [Linear bI (3)], for which, in series [1], the Stability testing result was “++”.

Values taken from patent publication US20110098224A1, “PROTEIN KINASE C PEPTIDE MODULATORS OF ANGIOGENESIS” (priority 2005, published 2011).
